From the RNAGym collection of RNA variant scans (doi:10.1093/molbev/msab373) come the findings set out here.

B1: Azoarcus group I ribozyme (parent)
chain: GUGCCUUGCGCCGGGAAACCACGCAAGGGAUGGUGUCAAAUUCGGCGAAACCUAAGCGCCCGCCCGGGCGUAUGGCAACGCCGAGCCAAGCUUCGGCGCCUGCGCCGAUGAAGGUGUAGAGACUAGACGGCACCCACCUAAGGCAAACGCUAUGGUGAAGGCAUAGUCCAGGGAGUGGCGAAAGUCACACAAACCGG

In the data set the parent is B1. The experiment in a line: reverse-splicing fitness (ratio to wild type); higher = more active; in vitro selection; Mg2+ level not given. Summed up:
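An in vitro group I ribozyme library with randomized positions was T7-transcribed and gel-purified. In triplicate, 10 pmol RNA in EPPS pH 7.5 was reacted with 50 pmoles of a 30-nt RNA substrate for 1 h at 37 °C across several added MgCl2 levels (1–48 mM), then stopped with EDTA. Products were reverse transcribed from a substrate-complementary primer, PCR-amplified and sequenced (HiSeq 4000). Fitness is a variant's read proportion after selection over that before, normalised to wild type.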
Regarding A120G U176G, the reverse-splicing fitness was found to be 0.0139.

In the case of A120G U176C, the reverse-splicing fitness was 0.222.

Turning to A120G U176A, the reverse-splicing fitness was 0.213.

Take A120G A145G C150A U176C: the reverse-splicing fitness worked out at 0.0809.

For the variant A120G A145G C150A U176G, the reverse-splicing fitness was determined as 0.0109.

On to A120G A145G C150A U176A, for which the reverse-splicing fitness amounted to 0.0568.

For the variant A120G C150U C169A, the reverse-splicing fitness came out at 0.29.

As for A120G C150U C169G, the reverse-splicing fitness is 0.419.

As for A120G C150U C169U, the reverse-splicing fitness turned out to be 0.284.

In the case of A120U A145G C150A U176C, the reverse-splicing fitness stood at 0.218.

A120U A145G C150A U176G: the reverse-splicing fitness was 0.063.

With A120U A145G C150A U176A, the reverse-splicing fitness came to 0.222.

A120U A145C C169A U176C: the reverse-splicing fitness was determined as 0.00401.

For A120U A145C C169A U176A, the reverse-splicing fitness came to 0.00275.

Turning to A120U A145C C169A U176G, the reverse-splicing fitness stood at 0.00153.

In the case of A120U A145C C150U U176C, the reverse-splicing fitness is 0.222.

Turning to A120U A145C C150U U176A, the reverse-splicing fitness came out at 0.328.

As to A120U A145C C150U U176G, the reverse-splicing fitness stood at 0.167.

For the variant A120G A145C C150G U176C, the reverse-splicing fitness amounted to 0.0556.

As for A120G A145C C150G U176A, the reverse-splicing fitness was determined as 0.0444.

As for A120G A145C C150G U176G, the reverse-splicing fitness stood at 0.0061.

Consider A120G A145G C150G U176G, for which the reverse-splicing fitness was determined as 0.00816.

As to A120G A145G C150G U176A, the reverse-splicing fitness worked out at 0.0423.

Take A120G A145G C150G U176C: the reverse-splicing fitness was determined as 0.0592.

On to A120G A145C U176C, for which the reverse-splicing fitness was determined as 0.227.

Take A120G A145C U176A: the reverse-splicing fitness stood at 0.179.

Turning to A120G A145C U176G, the reverse-splicing fitness came out at 0.0166.

Regarding A120U A145C U176A, the reverse-splicing fitness is 0.634.

On to A120U A145C U176G, for which the reverse-splicing fitness came to 0.36.

For A120U A145C U176C, the reverse-splicing fitness is 0.452.

Take A120G A145U C150G C169G U176C: the reverse-splicing fitness came to 0.011.

For A120G A145U C150G C169G U176A, the reverse-splicing fitness is 0.024.

With A120G A145U C150G C169G U176G, the reverse-splicing fitness worked out at 0.00487.

As to A120U A145G C150G C169A U176C, the reverse-splicing fitness came out at 0.00713.

As to A120U A145G C150G C169A U176A, the reverse-splicing fitness worked out at 0.0107.

On to A120U A145G C150G C169A U176G, for which the reverse-splicing fitness stood at 0.00464.

Turning to A120U A145G C150A C169U U176A, the reverse-splicing fitness was 0.0235.

As for A120U A145G C150A C169U U176C, the reverse-splicing fitness was 0.032.

A120U A145G C150A C169U U176G: the reverse-splicing fitness was 0.00424.

In the case of A120G A145G C150G C169U U176A, the reverse-splicing fitness turned out to be 0.0263.

Take A120G A145G C150G C169U U176G: the reverse-splicing fitness stood at 0.00777.

As to A120G A145G C150G C169U U176C, the reverse-splicing fitness was 0.0556.

Consider A120G C169G, for which the reverse-splicing fitness worked out at 0.64.

In the case of A120G C169U, the reverse-splicing fitness stood at 0.418.

Turning to A120G C169A, the reverse-splicing fitness worked out at 0.444.

A120G A145U C150U: the reverse-splicing fitness was 0.384.

A120G A145U C150A: the reverse-splicing fitness was found to be 0.0603.

Take A120G A145U C150G: the reverse-splicing fitness was determined as 0.07.

Turning to A120U A145G C150A C169G U176G, the reverse-splicing fitness worked out at 0.00259.

Consider A120U A145G C150A C169G U176A, for which the reverse-splicing fitness was 0.012.

Consider A120U A145G C150A C169G U176C, for which the reverse-splicing fitness came to 0.0214.

Turning to A120G C169A U176C, the reverse-splicing fitness is 0.189.

Turning to A120G C169A U176A, the reverse-splicing fitness came out at 0.112.

Turning to A120G C169A U176G, the reverse-splicing fitness turned out to be 0.00677.

For A120G A145U C150G C169U U176A, the reverse-splicing fitness is 0.0333.

For the variant A120G A145U C150G C169U U176G, the reverse-splicing fitness came to 0.00602.

Turning to A120G A145U C150G C169U U176C, the reverse-splicing fitness is 0.0556.

As for A120G A145U C150G U176C, the reverse-splicing fitness was found to be 0.0502.

On to A120G A145U C150G U176G, for which the reverse-splicing fitness stood at 0.00612.

Regarding A120G A145U C150G U176A, the reverse-splicing fitness came to 0.0351.

A120G A145G C150G: the reverse-splicing fitness turned out to be 0.088.

Take A120G A145G C150U: the reverse-splicing fitness turned out to be 0.436.

Consider A120G A145G C150A, for which the reverse-splicing fitness was determined as 0.0988.

Turning to A120G C169U U176A, the reverse-splicing fitness came out at 0.179.

Regarding A120G C169U U176G, the reverse-splicing fitness was 0.0211.

Consider A120G C169U U176C, for which the reverse-splicing fitness worked out at 0.204.

On to A120G A145G, for which the reverse-splicing fitness was 0.503.

Regarding A120G A145U, the reverse-splicing fitness stood at 0.508.

For A120U A145C C150A C169G U176A, the reverse-splicing fitness was 0.00491.

In the case of A120U A145C C150A C169G U176C, the reverse-splicing fitness was 0.0032.

For the variant A120U A145C C150A C169G U176G, the reverse-splicing fitness came out at 0.00221.

As for A120G A145C C169G U176C, the reverse-splicing fitness worked out at 0.235.

In the case of A120G A145C C169G U176A, the reverse-splicing fitness stood at 0.202.

Turning to A120G A145C C169G U176G, the reverse-splicing fitness was 0.0119.

With A120U, the reverse-splicing fitness turned out to be 0.858.

In the case of A120G A145C C150G C169U U176C, the reverse-splicing fitness was 0.054.

Take A120G A145C C150G C169U U176A: the reverse-splicing fitness was determined as 0.0356.

Consider A120G A145C C150G C169U U176G, for which the reverse-splicing fitness was 0.00576.

A120G C150A C169G U176A: the reverse-splicing fitness came out at 0.0606.

Regarding A120G C150A C169G U176C, the reverse-splicing fitness was 0.0784.

For the variant A120G C150A C169G U176G, the reverse-splicing fitness was 0.00584.

In the case of A120G A145U C169A U176A, the reverse-splicing fitness came to 0.113.

For the variant A120G A145U C169A U176C, the reverse-splicing fitness is 0.166.

Consider A120G A145U C169A U176G, for which the reverse-splicing fitness came to 0.00923.
